One block for each binder: values may come before it.
B1: P5 (reduced form) (enzyme, human, UniProt Q15084 20-440, looked up)
chain: LYSSSDDVIELTPSNFNREVIQSDSLWLVEFYAPWCGHCQRLTPEWKKAATALKDVVKVGAVDADKHHSLGGQYGVQGFPTIKIFGSNKNRPEDYQGGRTGEAIVDAALSALRQLVKDRLGGRSGGYSSGKQGRSDSSSKKDVIELTDDSFDKNVLDSEDVWMVEFYAPWCGHCKNLEPEWAAAASEVKEQTKGKVKLAAVDATVNQVLASRYGIRGFPTIKIFQKGESPVDYDGGRTRSDIVSRALDLFSDNAPPPELLEIINEDIAKRTCEEHQLCVVAVLPHILDTGAAGRNSYLEVLLKLADKYKKKMWGWLWTEAGAQSELETALGIGGFGYPAMAAINARKMKFALLKGSFSEQGINEFLRELSFGRGSTAPVGGGAFPTIVEREPWDGRDGELPVEDDIDLSDVELDDLGKDEL
notes: human P5 (PDIA6), Lys20-Leu440, cloned into pET15b; Used reduced (10 mM dithiothreitol treatment during purification); this was not measured here; also called ERp5; PDIA6; source: E. coli BL21 (DE3), purified (Ni-NTA, thrombin digestion, RESOURCE Q, Superdex 200)

How the values were obtained:
Conditions in all cases: both partners purified
PDI [1] = molecular target: T1, PDI (human, UniProt P07237 18-508); assay: far-Western, overlay or dot blot; reduced purified prey proteins (from 40 µM stocks, 3 µL) dotted on nitrocellulose; blocked with 5% skim milk in TBST; incubated with 0.2 µM reduced P5 in 20 mM Tris-HCl pH 7.6, 150 mM NaCl, 0.05% Tween 20 at 4 °C for 3 h; bound P5 detected with anti-P5 antiserum
T1 construct: human PDI (P4HB), Asp18-Leu508, cloned into pET15b; also called protein disulfide isomerase; P4HB; source: E. coli BL21 (DE3), purified (Ni-NTA, thrombin digestion, RESOURCE Q, Superdex 200)

ERp72 [2] = molecular target: T2, ERp72 (human, UniProt P13667 25-645); assay: as above
T2 construct: human ERp72, Glu25-Leu645, cloned into pET15b; source: E. coli BL21 (DE3), purified (Ni-NTA, thrombin digestion, RESOURCE Q, Superdex 200)
T2 sequence (looked up): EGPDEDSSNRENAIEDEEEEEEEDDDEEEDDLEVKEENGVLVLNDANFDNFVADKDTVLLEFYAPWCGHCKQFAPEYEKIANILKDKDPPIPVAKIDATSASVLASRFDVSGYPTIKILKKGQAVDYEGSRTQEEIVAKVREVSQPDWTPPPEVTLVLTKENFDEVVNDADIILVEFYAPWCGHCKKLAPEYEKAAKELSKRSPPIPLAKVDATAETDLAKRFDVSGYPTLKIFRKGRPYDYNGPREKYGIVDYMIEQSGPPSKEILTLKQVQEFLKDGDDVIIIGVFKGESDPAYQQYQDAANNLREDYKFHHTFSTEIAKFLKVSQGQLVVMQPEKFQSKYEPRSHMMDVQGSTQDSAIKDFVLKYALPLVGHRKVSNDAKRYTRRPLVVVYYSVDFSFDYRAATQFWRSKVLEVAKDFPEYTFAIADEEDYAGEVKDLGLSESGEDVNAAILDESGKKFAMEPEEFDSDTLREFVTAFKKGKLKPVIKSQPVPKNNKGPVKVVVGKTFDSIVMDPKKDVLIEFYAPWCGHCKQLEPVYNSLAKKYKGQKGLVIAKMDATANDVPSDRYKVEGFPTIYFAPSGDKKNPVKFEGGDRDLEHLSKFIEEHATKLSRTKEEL

IRE1α LD = molecular target: T3, IRE1α LD (human, UniProt O75460 24-446); assay: as above
T3 construct: human IRE1 (IRE1α LD), Ser24-Thr446, cloned into pGEX6p-1; It prints 'C-terminal GST', although pGEX6p-1 usually adds GST at the N-terminus; both tags were removed in any case; also called ER stress sensor IRE1; source: E. coli BL21 (DE3), purified (Glutathione Sepharose 4B, PreScission digestion, Ni-NTA, RESOURCE Q, Superdex 200); not shown: GST, C-terminal, cleaved
T3 sequence (looked up): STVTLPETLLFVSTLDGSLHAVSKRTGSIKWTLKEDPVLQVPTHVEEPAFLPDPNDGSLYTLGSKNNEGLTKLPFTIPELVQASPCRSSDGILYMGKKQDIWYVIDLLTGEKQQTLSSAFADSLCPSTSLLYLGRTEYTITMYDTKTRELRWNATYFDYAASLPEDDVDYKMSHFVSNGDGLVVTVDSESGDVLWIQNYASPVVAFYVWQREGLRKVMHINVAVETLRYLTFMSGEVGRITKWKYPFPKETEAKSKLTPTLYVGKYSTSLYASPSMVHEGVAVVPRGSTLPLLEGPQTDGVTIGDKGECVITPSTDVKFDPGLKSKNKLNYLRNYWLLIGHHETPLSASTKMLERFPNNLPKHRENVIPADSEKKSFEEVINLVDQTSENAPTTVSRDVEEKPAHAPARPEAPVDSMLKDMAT

PDI [3] = molecular target: T1, PDI; assay: ITC; 280 µM P5 Cys55/58/190/193Ala mutant in the syringe (50 mM HEPES pH 7.2, 150 mM NaCl) titrated into 40 µM PDI or ERp72 in the cell (50 mM HEPES pH 7.2); 30 °C; one set of sites model
ERp72 [4] = molecular target: T2, ERp72; assay: as above
P5 (reduced form) = molecular target: B1; assay: far-Western, overlay or dot blot; reduced purified prey proteins (from 40 µM stocks, 3 µL) dotted on nitrocellulose; blocked with 5% skim milk in TBST; incubated with 0.2 µM reduced P5 in 20 mM Tris-HCl pH 7.6, 150 mM NaCl, 0.05% Tween 20 at 4 °C for 3 h; bound P5 detected with anti-P5 antiserum

T1 sequence (P07237 18-508): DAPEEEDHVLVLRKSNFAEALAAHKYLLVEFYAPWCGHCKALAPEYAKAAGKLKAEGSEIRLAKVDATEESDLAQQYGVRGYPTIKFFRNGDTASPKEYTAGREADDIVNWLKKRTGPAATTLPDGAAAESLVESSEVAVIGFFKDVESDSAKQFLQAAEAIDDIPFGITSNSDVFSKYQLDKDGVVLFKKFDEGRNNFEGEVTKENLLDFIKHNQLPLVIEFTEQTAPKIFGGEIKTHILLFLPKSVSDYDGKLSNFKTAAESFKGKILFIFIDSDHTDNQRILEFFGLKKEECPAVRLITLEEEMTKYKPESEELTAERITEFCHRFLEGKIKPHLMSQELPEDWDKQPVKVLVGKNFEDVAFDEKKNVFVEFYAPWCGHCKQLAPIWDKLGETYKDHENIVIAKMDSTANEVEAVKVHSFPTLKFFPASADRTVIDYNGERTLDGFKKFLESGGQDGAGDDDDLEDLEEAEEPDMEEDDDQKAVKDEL

Binder: B1
- binding result (PDI [1]): binds
- binding result (ERp72 [2]): binds
- binding result (IRE1α LD): binds

- dH (PDI [3]): -4.4 ± 0.2 kcal/mol
- stoichiometry N (PDI [3]): 0.1
- dH (ERp72 [4]): -10.7 ± 0.8 kcal/mol
- stoichiometry N (ERp72 [4]): 0.1
B2: Catalytically-inactive P5 (Cys55/58/190/193Ala) mutant (enzyme, human, UniProt Q15084 20-440, looked up)
chain: LYSSSDDVIELTPSNFNREVIQSDSLWLVEFYAPWAGHAQRLTPEWKKAATALKDVVKVGAVDADKHHSLGGQYGVQGFPTIKIFGSNKNRPEDYQGGRTGEAIVDAALSALRQLVKDRLGGRSGGYSSGKQGRSDSSSKKDVIELTDDSFDKNVLDSEDVWMVEFYAPWAGHAKNLEPEWAAAASEVKEQTKGKVKLAAVDATVNQVLASRYGIRGFPTIKIFQKGESPVDYDGGRTRSDIVSRALDLFSDNAPPPELLEIINEDIAKRTCEEHQLCVVAVLPHILDTGAAGRNSYLEVLLKLADKYKKKMWGWLWTEAGAQSELETALGIGGFGYPAMAAINARKMKFALLKGSFSEQGINEFLRELSFGRGSTAPVGGGAFPTIVEREPWDGRDGELPVEDDIDLSDVELDDLGKDEL
notes: human P5 (PDIA6), Lys20-Leu440, with the four active-site cysteines changed to alanine; The limits are those stated for the human P5 gene in pET15b; also called mutated P5; source: E. coli BL21 (DE3), purified (Ni-NTA, thrombin digestion, RESOURCE Q, Superdex 200)

- binding result (P5 (reduced form)): binds
B3: ERp46 (enzyme)
chain: not shown
notes: human ERp46, Arg33-Leu432, cloned into pET15b; source: E. coli BL21 (DE3), purified (Ni-NTA, thrombin digestion, RESOURCE Q, Superdex 200)

Source: article PMC8615271, “Functional Interplay between P5 and PDI/ERp72 to Drive Protein Folding” (Biology, 2021)
